The data set “SEC-MALS” deals with the molecule itself. Description: SEC-MALS. In general terms: In gel filtration, larger molecules generally elute earlier.
The data set “negative-staining TEM” concerns the molecule itself. Description: negative-staining TEM.
The data set “SEC” concerns the molecule itself. Nature of the data set: SEC.

The term stoichiometry N denotes a count of units in the complex or per binding partner.

Numbering of substitutions follows the chain as printed. In names and notes the source's numbering stands.

B1: tag-cleaved SSNA1 1-90 (domain or fragment, human)
chain: GPMTQQGAALQNYNNELVKCIEELCQKREELCRQIQEEEDEKQRLQNEVRQLTEKLARVNENLARKIASRNEFDRTIAETEAAYLKILESSQ
For the protein B1, in the data set “SEC-MALS”, the “stoichiometry N” value turned out to be 2.

B2: tag-cleaved SSNA1 S89A (natural protein, human)
chain: GPMTQQGAALQNYNNELVKCIEELCQKREELCRQIQEEEDEKQRLQNEVRQLTEKLARVNENLARKIASRNEFDRTIAETEAAYLKILESAQTLLSVLKREAGNLTKATAPDQKSSGGRDS
For B2, the binding result in “negative-staining TEM” is listed as “binds”.

B3: tag-cleaved SSNA1 (full-length human SSNA1, 1-119) (natural protein)
chain: B2 chain with A91S
For the protein B3, in the data set “SEC”, the binding result is on record as “binds”.

B4: tag-cleaved SSNA1 S89D (natural protein, human)
chain: B2 chain with A91D
In the case of B4, the “stoichiometry N” value in “SEC-MALS” was 2.

B5: tag-cleaved SSNA1 1-97 (domain or fragment, human)
chain: GPMTQQGAALQNYNNELVKCIEELCQKREELCRQIQEEEDEKQRLQNEVRQLTEKLARVNENLARKIASRNEFDRTIAETEAAYLKILESSQTLLSVLK
For the protein B5, the binding result in “negative-staining TEM” is “binds”.

B6: tag-cleaved SSNA1 1-104 (domain or fragment, human)
chain: GPMTQQGAALQNYNNELVKCIEELCQKREELCRQIQEEEDEKQRLQNEVRQLTEKLARVNENLARKIASRNEFDRTIAETEAAYLKILESSQTLLSVLKREAGNLT
For the protein B6, in “SEC”, the binding result is given as “binds”.

Values taken from doi:10.1101/2025.04.28.648957 (bioRxiv, 2025).
